Measured values from patent US20170313764A1 (ACADEMISCH MEDISCH CENTRUM, published 2017).
Read-outs that look alike come from different tables or passages of the source.

T1: soluble E2-his6-sortase tag from HCV isolate AMS.2b.20876551.kloon21 (genotype 2b) (Hepatitis C virus genotype 2b)
T1 chain: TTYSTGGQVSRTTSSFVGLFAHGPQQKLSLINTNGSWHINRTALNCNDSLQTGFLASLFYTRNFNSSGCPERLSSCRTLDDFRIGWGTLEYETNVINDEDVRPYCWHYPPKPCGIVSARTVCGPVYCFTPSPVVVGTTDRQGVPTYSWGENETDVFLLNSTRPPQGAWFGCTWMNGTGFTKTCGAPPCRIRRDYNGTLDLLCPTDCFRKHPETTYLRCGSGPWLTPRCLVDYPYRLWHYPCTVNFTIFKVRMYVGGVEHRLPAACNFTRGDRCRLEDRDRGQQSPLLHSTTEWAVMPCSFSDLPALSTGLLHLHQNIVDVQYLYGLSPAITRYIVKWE

B1: AT12-010 (antibody, V domains shown)
VH: QLQLVQSGAEVKKPGSSVKVSCKASGGTFTSYAINWVRQVPGQGLEWMGEISPVFGTTHYAQKFQGRLKITADESADTAYMELSSLRSDDTAVYYCGRDRAPRLCSGGRCHSPPDHWGQGTLVTVSS
VL: DIQMTQSPSSVSASVGDRVTITCRASQGFGNWLAWYQQKPGRAPKLLIFGASTLQNGVPSRFSGSASGTDFTLTITSLQPEDFATYYCLQTNTFPYTFGQGTKVEIKR
B2: AT12-007 (antibody, V domains shown)
VH: QVQLEQSGAEVKKPGASVKVSCKVSGYTLTELSMHWVRQAPGKGLEWMGSFDPADGERLYAQKFQGRVIMSEDTSTDTAYMELSSLRSEDAAVYYCATAPRMTMFGVIMALDSWGQGTLVTVSS
VL: DIQMTQSPSTLSASLGDRVTITCRASQNINKYLAWYQQKPGKAPKLLIYKASNLQSGVPSRFSGSGSGTDFILTISSLQPDDFATYYCQQYTTYSAWTFGQGTNVDIKR
B3: AT15-012 (antibody, V domains shown)
VH: QVQLVQSGAEVKKPGSSVKVSCKASGGNFNIFPITWVRQAPGQGLEWMGEIIPMLGTPEYAQKFQGRVTITADKSTGTAFMELSSLRSEDTAVYYCARTETTLPGTLFFVYYFHFWGQGTPVTVSS
VL: EIVMTQSPVTLSVSPGERAILSCRASQSVSSSLAWYQQKPGQAPRLLIYGASTRATGVPARFSGSGSGTEFTLTISSVQSEDYAIYFCQQYNDRPPWTFGQGTKVEIK
notes: also called AT15-12
B4: AT15-009 (antibody, V domains shown)
VH: QVLLVQSGAEVKKPGSSVKVSCKASGGTFSTYAISWLRQAPGQGPEWMGGIVPMFGITNYAQHFQGRITITADKSTSTAYMELSSLGSEDTAVYFCARDLRSGGTFFSRGFDLWGPGTKVTVSS
VL: EIVLTQSPGTLSLSPGERATLSCRASQSVSSSFLTWYQQKPGQAPRLLIFDASTRATGVPDRFSGSGSGTDFTLTISRLEPEDFGVYYCQQFDSSPTFGGGTKVEIK

Legend:
[1] = target: E1E2 of HCV isolate H77 with single mutation G418A (Hepatitis C virus genotype 1a, strain …, UniProt P27958 192-383; P27958 384-746); assay: ELISA, GNA-captured E1E2 lysate; EC50 wild type / EC50 mutant
[2] = target: E1E2 of HCV isolate H77 with single mutation L413A (Hepatitis C virus genotype 1a, strain …, UniProt P27958 192-383; P27958 384-746); assay: as above
[3] = target: E1E2 of HCV isolate H77 with single mutation W420A (Hepatitis C virus genotype 1a, strain …, UniProt P27958 192-383; P27958 384-746); assay: as above
[4] = target: T2, soluble E2-his6-sortase tag from HCV isolate H77 (genotype 1a) (Hepatitis C virus genotype 1a, strain …, UniProt P27958 384-717); assay: SPR (IBIS MX96), antibody spotted on chip, soluble E2-his as analyte
T2 construct: also called E2-his6-ST; E2 genotype 1a

[5] = target: T1, soluble E2-his6-sortase tag from HCV …; assay: as above
[6] = target: T3, E1E2 of HCV isolate H77 (genotype 1a), wild type (Hepatitis C virus genotype 1a, strain …, UniProt P27958 192-383; P27958 384-746); assay: cell-based or functional assay
[7] = target: T4, E1E2 of HCV isolate AMS.3a.21071213 (genotype 3a) (Hepatitis C virus genotype 3a); assay: cell-based or functional assay
[8] = target: E1E2 of HCV isolate AMS.2b.20876551.kloon21 (genotype 2b) (Hepatitis C virus genotype 2b); assay: cell-based or functional assay
[9] = target: T5, E1E2 of HCV isolate AMS.4d.20875969 (genotype 4d) (Hepatitis C virus genotype 4d); assay: cell-based or functional assay
[10] = target: T6, E1E2 of HCV isolate UKN4.11.1 (genotype 4) (Hepatitis C virus genotype 4); assay: cell-based or functional assay
[11] = target: E1E2 of HCV isolate AMS.1b.20877857 (genotype 1b) (Hepatitis C virus genotype 1b); assay: cell-based or functional assay
[12] = target: E1E2 of HCV isolate H77 with single mutation V538A (Hepatitis C virus genotype 1a, strain …, UniProt P27958 192-383; P27958 384-746); assay: ELISA, GNA-captured E1E2 lysate; EC50 wild type / EC50 mutant
[13] = target: E1E2 of HCV isolate H77 with single mutation R657A (Hepatitis C virus genotype 1a, strain …, UniProt P27958 192-383; P27958 384-746); assay: as above
[14] = target: E1E2 of HCV isolate H77 with single mutation W616A (Hepatitis C virus genotype 1a, strain …, UniProt P27958 192-383; P27958 384-746); assay: as above
[15] = target: E1E2 of HCV isolate H77 with single mutation N448A (Hepatitis C virus genotype 1a, strain …, UniProt P27958 192-383; P27958 384-746); assay: as above
[16] = target: E1E2 of HCV isolate H77 with single mutation P664A (Hepatitis C virus genotype 1a, strain …, UniProt P27958 192-383; P27958 384-746); assay: as above
[17] = target: E1E2 of HCV isolate H77 with single mutation N423A (Hepatitis C virus genotype 1a, strain …, UniProt P27958 192-383; P27958 384-746); assay: as above
[18] = target: E1E2 of HCV isolate H77 with single mutation T534A (Hepatitis C virus genotype 1a, strain …, UniProt P27958 192-383; P27958 384-746); assay: as above
[19] = target: T3, E1E2 of HCV isolate H77 (genotype 1a), …; assay: cell-based or functional assay; remark: listed apart in the source
[20] = target: T4, E1E2 of HCV isolate AMS.3a.21071213 …; assay: cell-based or functional assay; remark: listed apart in the source
[21] = target: T5, E1E2 of HCV isolate AMS.4d.20875969 …; assay: cell-based or functional assay; remark: listed apart in the source
[22] = target: T6, E1E2 of HCV isolate UKN4.11.1 (genotype …); assay: cell-based or functional assay; remark: listed apart in the source

Row | Binder | relative binding, mutant vs wild type [1] [%] | relative binding, mutant vs wild type [2] [%] | relative binding, mutant vs wild type [3] [%] | Kd [4] [µM] | koff [4] [s⁻¹] | Kd [5] [µM] | koff [5] [s⁻¹] | IC50, HCVpp neutralization [6] [mg/L] | IC90, HCVpp neutralization [6] [mg/L] | IC50, HCVpp neutralization [7] [mg/L] | IC90, HCVpp neutralization [7] [mg/L] | IC50, HCVpp neutralization [8] [mg/L] | IC90, HCVpp neutralization [8] [mg/L] | IC50, HCVpp neutralization [9] [mg/L] | IC90, HCVpp neutralization [9] [mg/L] | IC50, HCVpp neutralization [10] [mg/L] | IC90, HCVpp neutralization [10] [mg/L] | IC50, HCVpp neutralization [11] [mg/L] | IC90, HCVpp neutralization [11] [mg/L] | relative binding, mutant vs wild type [12] [%] | further results
1 | B1 | 203 | 217 | < 10 | 0.0393 | 0.00142 | 0.0228 | 0.00098 | 1.06 | > 50 | 1.41 | > 50 | 0.61 | 20.4 | > 50 | > 50 | > 50 | > 50 | 0.47 | 8.51 | – | –
2 | B2 | 130 | 187 | 87 | 0.044 | 0.00184 | 0.0038 | 0.00019 | 2.67 | > 50 | 1.42 | 21.7 | 0.26 | 9.41 | > 50 | > 50 | 1.87 | > 50 | 0.04 | 0.5 | – | –
3 | B3 | – | – | – | – | – | – | – | – | – | – | – | – | – | – | – | – | – | – | – | 103 | relative binding, mutant vs wild type [13]: 138%; relative binding, mutant vs wild type [14]: 71%; relative binding, mutant vs wild type [15]: 129%; relative binding, mutant vs wild type [16]: 83%; relative binding, mutant vs wild type [17]: 132%; relative binding, mutant vs wild type [18]: 95%; IC50, HCVpp neutralization [19]: 0.26 mg/L; IC50, HCVpp neutralization [20]: 0.9 mg/L; IC50, HCVpp neutralization [21]: 1.16 mg/L; IC50, HCVpp neutralization [22]: 1.66 mg/L
4 | B4 | – | – | – | – | – | – | – | – | – | – | – | – | – | – | – | – | – | – | – | 126 | relative binding, mutant vs wild type [13]: 123%; relative binding, mutant vs wild type [14]: 29%; relative binding, mutant vs wild type [15]: 113%; relative binding, mutant vs wild type [16]: 101%; relative binding, mutant vs wild type [17]: 111%; relative binding, mutant vs wild type [18]: 93%; IC50, HCVpp neutralization [19]: 0.14 mg/L; IC50, HCVpp neutralization [20]: 0.71 mg/L; IC50, HCVpp neutralization [21]: 2.26 mg/L; IC50, HCVpp neutralization [22]: 1.33 mg/L
